# In US20130040894A1, “INHIBITION OR ACTIVATION OF SERINE/THREONINE ULK3 KINASE ACTIVITY” (TALLINN UNIVERSITY OF TECHNOLOGY, priority 2009, published 2013):
# Experiments:
# GLI2 = experiment: In vitro kinase assay, phosphorylation of GLI2; assay type: biochemical; conditions: FLAG-tagged GLI2 immunoprecipitated from HEK293 cells
# Description: (§1) HEK293 cells were transfected with 13.5 μg of FLAG-tagged constructs expressed GLI1, GLI2, GLI3, ULK3, ULK3(K44R), ULK3(K139R) or FLAG-CMV-4 empty vector on 10 cm plates. The cells were lysed with 0.5 ml of Lysis Buffer (50 mM Tris HCl, pH 7.4, 150 mM NaCl, 1 mM EDTA, 1% Triton X-100) containing protease inhibitor cocktail (PIC) (Roche Applied Science). The lysates were centrifuged for 15 min at 4° C. and 15000 g, and the supernatants were used for immunoprecipitation (IP). IP was performed using anti-FLAG-M2 affinity gel (Sigma-Aldrich) in batch format according to the manufacture's instructions. Immune complexes were washed three times with 500 μl of Kinase Buffer (KB) (50 mM HEPES, pH 7.4, 20 mM MgCl2, 25 μM ATP) and resuspended in 12.5 μl of KB. One fifth of the immuno-complexes was subjected to WB and the rest was used for the kinase assay.
# Kinase reactions were carried out in KB in a total volume of 20 μl of in the presence of 1 μCi of [γ-^32P]ATP per reaction. We used 1 μl of the immunoprecipitated ULK3, ULK3(K44R) or ULK3(K139R) mixed with 5 μl of the GLI-M2 immunocomplexes or 5 μl of bacterially expressed and purified His-GLI1 fragments. Kinase reactions were held at 30° C. for 30 min and terminated by adding of 5 μl of 4× Laemmli Sample Buffer. Proteins were resolved by SDS-PAGE. […]
# GLI1 = experiment: In vitro kinase assay, phosphorylation of GLI1; assay type: biochemical, human
# Description: Three overlapping human GLI1 domains corresponding to amino acids 1-433, 426-754 and 726-1106 were cloned into pET-15b vector (Novagen) between NdeI and BamHI sites. GLI1 amino acid sequence is provided as SEQ ID NO: 2). The fragments were expressed in BL21(DE3)pLys E. coli strain overnight at 21° C. using 0.1 mM IPTG and purified using Ni-CAM™ HC resin (Sigma-Aldrich) according to the manufacturer's recommendations. The proteins were eluted by PBS and verified by Western Blot (WB).
# as §1
# Kinase reactions were carried out in KB in a total volume of 20 μl of in the presence of 1 μCi of [γ-^32P]ATP per reaction. We used 1 μl of the immunoprecipitated ULK3, ULK3(K44R) or ULK3(K139R) mixed with 5 μl of the GLI-M2 immunocomplexes or 5 μl of bacterially expressed and purified His-GLI1 fragments. Kinase reactions were held at 30° C. for 30 min and terminated by adding of 5 μl of 4× Laemmli Sample Buffer. Proteins were resolved by SDS-PAGE. The gel was dried at 80° C. for 2 h, and autoradiography was performed using Bio-Rad Personal Molecular Imager FX.
# We also assayed whether ULK3 is able to phosphorylate GLI proteins. FLAG-tagged GLI1, GLI2 and GLI3 proteins were expressed and immunoprecipitated from HEK293 cells and used as substrates for immunopurified ULK3 in the in vitro kinase assay. ULK3 was able to phosphorylate GLI proteins but with different efficiency (FIG. 3B). […] To support these findings and identify the regions in GLI1 protein that are phosphorylated by ULK3, we used bacterially expressed His-tagged fragments of GLI1 as substrate for ULK3 kinase. Two of them—GLI1(1-433) and GLI1(726-1106)—were phosphorylated by ULK3.
# [1] = bacterially expressed His-tagged fragment
molecule,measurement,setting,value
"ULK3: human serine/threonine kinase, 472 amino acids (SEQ ID NO: 1), overexpressed from cloned cDNA or immunopurified FLAG-tagged (protein, listed as Homo sapiens, PEPTIDE (1)..(472) ULK3) MAGPGWGPPRLDGFILTERLGSGTYATVYKAYAKKDTREVVAIKCVAKKSLNKASVENLLTEIEILKGIRHPHIVQLKDFQWDSDNIYLIMEFCAGGDLSRFIHTRRILPEKVARVFMQQLASALQFLHERNISHLDLKPQNILLSSLEKPHLKLADFGFAQHMSPWDEKHVLRGSPLYMAPEMVCQRQYDARVDLWSMGVILYEALFGQPPFASRSFSELEEKIRSNRVIELPLRPLLSRDCRDLLQRLLERDPSRRISFQDFFAHPWVDLEHMPSGESLGRATALVVQAVKKDQEGDSAAALSLYCKALDFFVPALHYEVDAQRKEAIKAKVGQYVSRAEELKAIVSSSNQALLRQGTSARDLLREMARDKPRLLAALEVASAAMAKEEAAGGEQDALDLYQHSLGELLLLLAAEPPGRRRELLHTEVQNLMARAEYLKEQVKMRESRWEADTLDKEGLSESVRSSCTLQ",phosphorylation of GLI2,GLI2,strongest phosphorylation signal
same,phosphorylation of GLI1,GLI1; FLAG-tagged GLI1 immunoprecipitated from HEK293 cells,significantly lower intensity as compared to GLI2
same,phosphorylation of GLI1(1-433) fragment,GLI1; [1],phosphorylated
same,phosphorylation of GLI1(726-1106) fragment,GLI1; [1],phosphorylated
same,phosphorylation of central part of GLI1 (amino acids 426-754),GLI1; [1],not phosphorylated
